# Measurements reported in patent US20230022700A1.
# Target: polymerized rabbit skeletal muscle actin (F-actin) (rabbit) (UniProt P68135)
substance,measurement,value
"Wolbachia wMel protein WD0830 (Wolbachia actin localizing effector 1, WalE1), purified from E. coli",percent of total protein in the pellet when actin was present,24%
